Reference: patent US20260184748A1 (University of Pennsylvania, published 2026)
Where no end group is shown, it is not given here.

Legend:
Test in all cases: cell-based or functional assay
[1] = target: T1, DRD4 (UniProt P21917 1-419, limits assumed)
T1 sequence (looked up): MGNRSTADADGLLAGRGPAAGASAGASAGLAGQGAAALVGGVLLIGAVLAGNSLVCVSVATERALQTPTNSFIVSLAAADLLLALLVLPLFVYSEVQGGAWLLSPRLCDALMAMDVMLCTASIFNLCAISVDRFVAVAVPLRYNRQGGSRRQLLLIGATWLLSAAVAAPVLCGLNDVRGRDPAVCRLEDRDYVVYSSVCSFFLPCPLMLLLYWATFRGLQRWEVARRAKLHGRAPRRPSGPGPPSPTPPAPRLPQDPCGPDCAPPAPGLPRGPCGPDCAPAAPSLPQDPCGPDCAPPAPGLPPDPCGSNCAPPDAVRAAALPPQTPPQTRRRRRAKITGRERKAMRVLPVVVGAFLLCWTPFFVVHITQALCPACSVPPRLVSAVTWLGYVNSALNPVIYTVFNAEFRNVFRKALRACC

[2] = target: T2, BDKRB2 (UniProt P30411 1-391, limits assumed)
T2 sequence (looked up): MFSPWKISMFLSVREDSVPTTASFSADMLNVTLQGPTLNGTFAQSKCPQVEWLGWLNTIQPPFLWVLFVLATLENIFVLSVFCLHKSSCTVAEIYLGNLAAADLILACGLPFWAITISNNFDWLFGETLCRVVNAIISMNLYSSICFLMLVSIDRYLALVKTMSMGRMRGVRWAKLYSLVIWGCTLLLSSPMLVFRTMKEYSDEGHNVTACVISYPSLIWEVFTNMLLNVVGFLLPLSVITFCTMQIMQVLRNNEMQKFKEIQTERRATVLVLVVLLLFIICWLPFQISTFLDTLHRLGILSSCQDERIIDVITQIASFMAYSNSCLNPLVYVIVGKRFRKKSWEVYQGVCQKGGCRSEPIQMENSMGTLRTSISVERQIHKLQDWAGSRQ

[3] = target: T3, GIPR (UniProt P48546 22-466)
T3 sequence (looked up): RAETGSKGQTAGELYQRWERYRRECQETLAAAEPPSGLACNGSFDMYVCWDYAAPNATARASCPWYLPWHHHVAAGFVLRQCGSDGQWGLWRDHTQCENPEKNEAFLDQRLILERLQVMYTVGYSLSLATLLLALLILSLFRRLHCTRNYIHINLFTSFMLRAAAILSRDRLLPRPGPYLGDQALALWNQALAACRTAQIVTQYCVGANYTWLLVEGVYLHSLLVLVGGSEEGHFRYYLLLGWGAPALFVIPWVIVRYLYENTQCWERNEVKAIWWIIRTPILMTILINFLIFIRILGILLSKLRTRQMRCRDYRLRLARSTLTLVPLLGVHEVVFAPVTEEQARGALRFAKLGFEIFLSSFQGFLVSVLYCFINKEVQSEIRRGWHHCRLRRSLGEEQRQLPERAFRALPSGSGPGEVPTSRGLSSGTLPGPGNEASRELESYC

[4] = target: T4, CCKBR (UniProt P32239 1-447)
T4 sequence (looked up): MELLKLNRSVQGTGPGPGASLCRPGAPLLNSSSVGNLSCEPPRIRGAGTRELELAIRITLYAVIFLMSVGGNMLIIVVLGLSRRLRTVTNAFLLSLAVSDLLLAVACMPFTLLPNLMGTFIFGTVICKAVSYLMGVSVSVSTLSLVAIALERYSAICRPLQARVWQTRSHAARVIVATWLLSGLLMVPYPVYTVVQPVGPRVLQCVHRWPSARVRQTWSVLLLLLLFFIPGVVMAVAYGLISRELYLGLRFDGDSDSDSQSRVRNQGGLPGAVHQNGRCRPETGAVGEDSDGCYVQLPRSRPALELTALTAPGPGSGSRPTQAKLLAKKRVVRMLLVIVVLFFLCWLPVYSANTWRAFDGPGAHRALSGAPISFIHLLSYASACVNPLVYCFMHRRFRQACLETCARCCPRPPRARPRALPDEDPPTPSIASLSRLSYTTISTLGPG

[5] = target: T5, NPSR1B (UniProt Q6W5P4-4 1-377, limits assumed)
T5 sequence (looked up): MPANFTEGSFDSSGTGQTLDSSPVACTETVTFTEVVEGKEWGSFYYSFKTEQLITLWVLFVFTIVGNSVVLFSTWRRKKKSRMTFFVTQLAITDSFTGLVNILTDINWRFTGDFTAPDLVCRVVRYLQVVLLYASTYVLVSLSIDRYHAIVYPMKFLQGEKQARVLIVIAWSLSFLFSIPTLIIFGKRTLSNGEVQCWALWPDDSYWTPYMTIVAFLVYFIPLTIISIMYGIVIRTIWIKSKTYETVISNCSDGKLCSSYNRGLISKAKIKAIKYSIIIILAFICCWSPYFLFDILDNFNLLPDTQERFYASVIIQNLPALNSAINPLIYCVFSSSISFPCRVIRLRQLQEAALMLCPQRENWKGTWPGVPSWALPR

[6] = target: NPBWR2 (UniProt P48146 1-333)
[7] = target: GRPR (UniProt P30550 1-384)
[8] = target: T6, CCR6 (UniProt P51684 1-374)
T6 sequence (looked up): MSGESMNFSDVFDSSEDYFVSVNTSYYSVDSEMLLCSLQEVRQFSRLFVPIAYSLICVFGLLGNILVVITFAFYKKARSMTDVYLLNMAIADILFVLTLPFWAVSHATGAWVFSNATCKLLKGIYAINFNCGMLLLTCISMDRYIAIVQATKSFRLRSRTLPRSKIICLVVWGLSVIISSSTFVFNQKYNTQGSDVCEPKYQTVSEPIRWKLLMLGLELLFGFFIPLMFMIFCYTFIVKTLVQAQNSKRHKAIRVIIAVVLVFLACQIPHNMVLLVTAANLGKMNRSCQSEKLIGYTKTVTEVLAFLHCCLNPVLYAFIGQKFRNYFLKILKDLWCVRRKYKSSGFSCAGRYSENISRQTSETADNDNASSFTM

Sequence of NPBWR2 (P48146 whole entry): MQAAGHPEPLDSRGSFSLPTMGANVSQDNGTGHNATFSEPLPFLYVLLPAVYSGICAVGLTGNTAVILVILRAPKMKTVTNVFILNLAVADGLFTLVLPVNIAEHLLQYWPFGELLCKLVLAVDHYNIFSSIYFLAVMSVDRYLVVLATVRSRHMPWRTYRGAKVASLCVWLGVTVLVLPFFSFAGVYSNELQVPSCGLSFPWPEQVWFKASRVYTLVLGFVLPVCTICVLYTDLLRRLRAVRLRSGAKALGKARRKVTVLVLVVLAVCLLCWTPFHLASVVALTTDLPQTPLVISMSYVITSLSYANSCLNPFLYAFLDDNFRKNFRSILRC
Sequence of GRPR (P30550 whole entry): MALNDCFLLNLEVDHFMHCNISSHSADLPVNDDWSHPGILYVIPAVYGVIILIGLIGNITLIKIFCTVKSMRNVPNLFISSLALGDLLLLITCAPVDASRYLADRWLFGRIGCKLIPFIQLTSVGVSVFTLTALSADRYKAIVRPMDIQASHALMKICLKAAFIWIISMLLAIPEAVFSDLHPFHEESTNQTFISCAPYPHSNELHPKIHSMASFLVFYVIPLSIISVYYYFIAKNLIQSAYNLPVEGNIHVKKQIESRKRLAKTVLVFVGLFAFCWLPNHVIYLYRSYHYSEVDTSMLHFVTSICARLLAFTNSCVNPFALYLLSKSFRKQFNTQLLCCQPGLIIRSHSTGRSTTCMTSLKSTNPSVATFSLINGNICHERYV

B1: octadecaneuropeptide (ODN) (peptide)
peptide: QATVGDVNTDRPGLLDLK
modifications: also: synthesised on Rink amide resin, C-terminal amide not given here outright
Q: Which “% Activity, arrestin, antagonist mode, 2.5 uM” value (“% Activity, arrestin” below) [1] does the source give for B1 here?
A: 2.5%

Q: What about the “% Activity, arrestin” value [2] of the same binder?
A: -1.7%

Q: And the “% Activity, arrestin” value [3]?
A: -18.9%

Q: What about the “% Activity, arrestin” value [4] of the same binder?
A: -7.8%

Q: What about the “% Activity, arrestin” value [5] of the same binder?
A: 15.5%

Q: What about the “% Activity, arrestin” value [6] of the same binder?
A: -1.1%

Q: And the “% Activity, arrestin” value [7]?
A: -12.2%

Q: What about the “% Activity, arrestin” value [8] of the same binder?
A: -14.8%
